The source of these data is the RNAGym collection of RNA variant scans (doi:10.7554/elife.90254).

B1: LINE1-mini (parent)
chain: GGCAGAGCUCAACACAGCGUGGCAAAGUGGCUGUGGCUAGACUGCC

Variants of B1 are the subject of this data set. Put plainly: self-cleavage, relative activity (ratio to wild type); higher = more cleavage; in vitro, sequencing; the parent is a self-cleaving ribozyme.
Take GGCAGAGCUCAACACAGCGUGGGAAAGUGGCUGUGGCUAGACUACC [C23G G44A]: the self-cleavage worked out at 0.41.
Turning to GGCAGAGCUCAACACAGCGUGGGAAAGUGGCUGUGGCUAGACUUCC [C23G G44U], the self-cleavage was 0.16.
Next, GGCAGAGCUCAACACAGCGUGGGAAAGUGGCUGUGGCUAGACUCCC [C23G G44C]: 0.2.
Next, GGCAGAGCUCAACACAGCGUGGUAAAGUGGCUGUGGCUAGACUGCC [C23U]: 1.03; GGCAGAGCUCAACACAGCGUGGGAAAGUGGCUGUGGCUAGACUGCC [C23G]: 0.84.
As for GGCAGAGCUCAACACAGCGUGGGAAAGUGGCUGUGACUAGACUGCC [C23G G36A], the figure is 0.14; as for GGCAGAGCUCAACACAGCGUGGGAAAGUGGCUGUGCCUAGACUGCC [C23G G36C], 0.11; as for GGCAGAGCUCAACACAGCGUGGGAAAGUGGCUGUGUCUAGACUGCC [C23G G36U], 0.07.
In the case of GGCAGAGCUCAACACAGCGUGGGAAAGUGGCUGUGGCUAGGCUGCC [C23G A41G], the self-cleavage is 0.37.
Next, GGCAGAGCUCAACACAGCGUGGGAAAGUGGCUGUGGCUAGCCUGCC [C23G A41C]: 0.04; GGCAGAGCUCAACACAGCGUGGGAAAGUGGCUGUGGCUAGUCUGCC [C23G A41U]: 0.53.
Next, GGCAGAGCUCAACACAGCGUGGGAAAGUGGCUGUGGGUAGACUGCC [C23G C37G]: 0.01; GGCAGAGCUCAACACAGCGUGGGAAAGUGGCUGUGGUUAGACUGCC [C23G C37U]: 0.02; GGCAGAGCUCAACACAGCGUGGGAAAGUGGCUGUGGAUAGACUGCC [C23G C37A]: 0.04.
As for GGCAGAGCUCAACACAGCGUGGGAAAGUGGCUGAGGCUAGACUGCC [C23G U34A], the figure is 0.09; as for GGCAGAGCUCAACACAGCGUGGGAAAGUGGCUGGGGCUAGACUGCC [C23G U34G], 0.23; as for GGCAGAGCUCAACACAGCGUGGGAAAGUGGCUGCGGCUAGACUGCC [C23G U34C], 0.32.
As to GGCAGAGCUCAACACAGCGUGGGAAACUGGCUGUGGCUAGACUGCC [C23G G27C], the self-cleavage was found to be 0.27.
As for GGCAGAGCUCAACACAGCGUGGGAAAUUGGCUGUGGCUAGACUGCC [C23G G27U], the figure is 1.17; as for GGCAGAGCUCAACACAGCGUGGGAAAAUGGCUGUGGCUAGACUGCC [C23G G27A], 0.95; as for GGCAGAGCUCAACACAGCGUGGGAAAGUGGCUGUGGCUAGACUGCU [C23G C46U], 1.
As for GGCAGAGCUCAACACAGCGUGGGAAAGUGGCUGUGGCUAGACUGCA [C23G C46A], the figure is 1.07.
Next, GGCAGAGCUCAACACAGCGUGGGAAAGUGGCUGUGGCUAGACUGCG [C23G C46G]: 0.6.
GGCAGAGCUCAACACAGCGUGGGAAAGUGGCUGUGGCUAGACUGGC [C23G C45G]: the self-cleavage is 0.77.
For GGCAGAGCUCAACACAGCGUGGGAAAGUGGCUGUGGCUAGACUGAC [C23G C45A], the self-cleavage stood at 0.79.
Take GGCAGAGCUCAACACAGCGUGGGAAAGUGGCUGUGGCUAGACUGUC [C23G C45U]: the self-cleavage turned out to be 0.97.
Next, GGCAGAGCUCAACACAGCGUGGAAAAGUGCCUGUGGCUAGACUGCC [C23A G30C]: 2.68; GGCAGAGCUCAACACAGCGUGGAAAAGUGACUGUGGCUAGACUGCC [C23A G30A]: 1.34; GGCAGAGCUCAACACAGCGUGGAAAAGUGUCUGUGGCUAGACUGCC [C23A G30U]: 1.16.
As for GGCAGAGCUCAACACAGCGUGGAAAAGUGGCUGUGGCUAGACUACC [C23A G44A], the figure is 0.61; as for GGCAGAGCUCAACACAGCGUGGAAAAGUGGCUGUGGCUAGACUUCC [C23A G44U], 0.28; as for GGCAGAGCUCAACACAGCGUGGAAAAGUGGCUGUGGCUAGACUCCC [C23A G44C], 0.51.
Next, GGCAGAGCUCAACACAGCGUGGAAAAGUGGCUGUAGCUAGACUGCC [C23A G35A]: 0.23; GGCAGAGCUCAACACAGCGUGGAAAAGUGGCUGUCGCUAGACUGCC [C23A G35C]: 0.14.
Consider GGCAGAGCUCAACACAGCGUGGAAAAGUGGCUGUUGCUAGACUGCC [C23A G35U], for which the self-cleavage came out at 0.22.
Regarding GGCAGAGCUCAACACAGCGUGGGCAAGUGGCUGUGGCUAGACUGCC [C23G A24C], the self-cleavage came out at 0.41.
As for GGCAGAGCUCAACACAGCGUGGGUAAGUGGCUGUGGCUAGACUGCC [C23G A24U], the figure is 0.75; as for GGCAGAGCUCAACACAGCGUGGGGAAGUGGCUGUGGCUAGACUGCC [C23G A24G], 0.88.
As for GGCAGAGCUCAACACAGCGUGGGAAAGUGGCUGUGGCUAAACUGCC [C23G G40A], the figure is 0.07; as for GGCAGAGCUCAACACAGCGUGGGAAAGUGGCUGUGGCUACACUGCC [C23G G40C], 0.13.
Next, GGCAGAGCUCAACACAGCGUGGGAAAGUGGCUGUGGCUAUACUGCC [C23G G40U]: 0.14; GGCAGAGCUCAACACAGCGUGGAAAAGUGGCUGUGCCUAGACUGCC [C23A G36C]: 0.07.
In the case of GGCAGAGCUCAACACAGCGUGGAAAAGUGGCUGUGUCUAGACUGCC [C23A G36U], the self-cleavage was found to be 0.06.
As for GGCAGAGCUCAACACAGCGUGGAAAAGUGGCUGUGACUAGACUGCC [C23A G36A], the figure is 0.17; as for GGCAGAGCUCAACACAGCGUGGGAACGUGGCUGUGGCUAGACUGCC [C23G A26C], 0.88; as for GGCAGAGCUCAACACAGCGUGGGAAUGUGGCUGUGGCUAGACUGCC [C23G A26U], 1.62.
Take GGCAGAGCUCAACACAGCGUGGGAAGGUGGCUGUGGCUAGACUGCC [C23G A26G]: the self-cleavage worked out at 0.76.
Next, GGCAGAGCUCAACACAGCGUGGAAAAGUUGCUGUGGCUAGACUGCC [C23A G29U]: 0.88; GGCAGAGCUCAACACAGCGUGGAAAAGUCGCUGUGGCUAGACUGCC [C23A G29C]: 0.39; GGCAGAGCUCAACACAGCGUGGAAAAGUAGCUGUGGCUAGACUGCC [C23A G29A]: 0.91.
Regarding GGCAGAGCUCAACACAGCGUGGAAAACUGGCUGUGGCUAGACUGCC [C23A G27C], the self-cleavage is 0.81.
Turning to GGCAGAGCUCAACACAGCGUGGAAAAUUGGCUGUGGCUAGACUGCC [C23A G27U], the self-cleavage stood at 0.72.
As for GGCAGAGCUCAACACAGCGUGGAAAAAUGGCUGUGGCUAGACUGCC [C23A G27A], the self-cleavage was determined as 0.92.
As for GGCAGAGCUCAACACAGCGUGGGACAGUGGCUGUGGCUAGACUGCC [C23G A25C], the figure is 0.69; as for GGCAGAGCUCAACACAGCGUGGGAUAGUGGCUGUGGCUAGACUGCC [C23G A25U], 0.72; as for GGCAGAGCUCAACACAGCGUGGGAGAGUGGCUGUGGCUAGACUGCC [C23G A25G], 1.
